Measurements published in patent US20140087995A1 (published 2014).
Numbered stars: 1 amine (or outer) side, 2 acyl side, 3 side chain; on linkers, the order of the positions; unused ones are H or OH. Bridge positions count the residues as written; N and C are the ends. Side chains are listed from the residue outwards. Ends that are not written are not given here. * marks the point of attachment. C20 diacid = O=C(O)CCCCCCCCCCCCCCCCCCC(=O)*; γGlu = O=C(O)[C@H](CCC(=O)[*:2])N[*:1]; AEEA = NCCOCCOCC(=O)O

T1: human amylin receptor (amylin 3(a) receptor: human calcitonin receptor co-expressed with RAMP-3) (human, UniProt P30988 25-474; O60896 24-148, limits assumed)
T1 sequence (looked up) 1: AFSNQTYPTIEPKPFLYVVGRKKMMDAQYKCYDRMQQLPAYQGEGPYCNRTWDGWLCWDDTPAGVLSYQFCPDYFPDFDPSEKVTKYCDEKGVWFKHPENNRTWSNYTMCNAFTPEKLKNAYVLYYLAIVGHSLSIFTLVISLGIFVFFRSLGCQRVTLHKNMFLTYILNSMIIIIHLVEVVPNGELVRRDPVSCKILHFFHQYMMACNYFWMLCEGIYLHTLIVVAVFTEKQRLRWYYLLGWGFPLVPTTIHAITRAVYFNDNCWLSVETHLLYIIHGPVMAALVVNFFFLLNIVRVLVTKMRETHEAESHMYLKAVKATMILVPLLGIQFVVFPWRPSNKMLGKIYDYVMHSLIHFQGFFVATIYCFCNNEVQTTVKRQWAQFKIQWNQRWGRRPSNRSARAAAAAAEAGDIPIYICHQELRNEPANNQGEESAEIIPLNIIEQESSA
T1 sequence (looked up) 2: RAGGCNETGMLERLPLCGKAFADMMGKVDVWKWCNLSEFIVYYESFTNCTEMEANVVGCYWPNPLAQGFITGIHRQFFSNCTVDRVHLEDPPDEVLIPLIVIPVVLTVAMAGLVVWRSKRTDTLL

T2: human calcitonin receptor (human, UniProt P30988 25-474)
T2 sequence (looked up): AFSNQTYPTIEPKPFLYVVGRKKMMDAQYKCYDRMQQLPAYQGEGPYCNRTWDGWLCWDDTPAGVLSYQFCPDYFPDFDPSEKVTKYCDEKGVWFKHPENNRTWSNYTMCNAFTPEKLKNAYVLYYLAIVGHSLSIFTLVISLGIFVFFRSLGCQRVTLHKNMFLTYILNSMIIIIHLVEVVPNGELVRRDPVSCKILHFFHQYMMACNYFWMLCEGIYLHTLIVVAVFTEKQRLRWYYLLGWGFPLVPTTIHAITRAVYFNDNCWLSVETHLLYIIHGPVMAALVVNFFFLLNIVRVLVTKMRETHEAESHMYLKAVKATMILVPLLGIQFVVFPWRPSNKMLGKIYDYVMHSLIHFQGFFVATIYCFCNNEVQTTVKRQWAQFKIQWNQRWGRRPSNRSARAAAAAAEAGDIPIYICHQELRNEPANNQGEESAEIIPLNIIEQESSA

B1: N^ε1-[2-[2-[2-[[(4S)-4-carboxy-4-(19-carboxynonadecanoylamino)butanoyl]amino]ethoxy]ethoxy]acetyl]-[Arg17,Pro21,Pro27,Pro28,Pro34]-h-amylin (peptide)
peptide: K([AEEA-γGlu-C20 diacid])CNTATCATQRLANFLRHSSPNFGAIPPSTNVGPNTY-NH2
modifications: disulfide 2-7; N-terminus assumed
SMILES: CC[C@H](C)[C@H](NC(=O)[C@H](C)NC(=O)CNC(=O)[C@H](Cc1ccccc1)NC(=O)[C@H](CC(N)=O)NC(=O)[C@@H]1CCCN1C(=O)[C@H](CO)NC(=O)[C@H](CO)NC(=O)[C@H](Cc1c[nH]cn1)NC(=O)[C@H](CCCNC(=N)N)NC(=O)[C@H](CC(C)C)NC(=O)[C@H](Cc1ccccc1)NC(=O)[C@H](CC(N)=O)NC(=O)[C@H](C)NC(=O)[C@H](CC(C)C)NC(=O)[C@H](CCCNC(=N)N)NC(=O)[C@H](CCC(N)=O)NC(=O)[C@@H](NC(=O)[C@H](C)NC(=O)[C@@H]1CSSC[C@H](NC(=O)[C@@H](N)CCCCNC(=O)COCCOCCNC(=O)CC[C@H](NC(=O)CCCCCCCCCCCCCCCCCCC(=O)O)C(=O)O)C(=O)N[C@@H](CC(N)=O)C(=O)N[C@@H]([C@@H](C)O)C(=O)N[C@@H](C)C(=O)N[C@@H]([C@@H](C)O)C(=O)N1)[C@@H](C)O)C(=O)N1CCC[C@H]1C(=O)N1CCC[C@H]1C(=O)N[C@@H](CO)C(=O)N[C@H](C(=O)N[C@@H](CC(N)=O)C(=O)N[C@H](C(=O)NCC(=O)N1CCC[C@H]1C(=O)N[C@@H](CC(N)=O)C(=O)N[C@H](C(=O)N[C@@H](Cc1ccc(O)cc1)C(N)=O)[C@@H](C)O)C(C)C)[C@@H](C)O
notes: also called compound 55
B2: N^ε1-[2-[2-[2-[[(4S)-4-carboxy-4-(19-carboxynonadecanoylamino)butanoyl]amino]ethoxy]ethoxy]acetyl]-[His14,Arg17,Pro21,Pro27,Arg34]-h-amylin (peptide)
peptide: K([AEEA-γGlu-C20 diacid])CNTATCATQRLAHFLRHSSPNFGAIPSSTNVGRNTY-NH2
modifications: disulfide 2-7; N-terminus assumed
SMILES: CC[C@H](C)[C@H](NC(=O)[C@H](C)NC(=O)CNC(=O)[C@H](Cc1ccccc1)NC(=O)[C@H](CC(N)=O)NC(=O)[C@@H]1CCCN1C(=O)[C@H](CO)NC(=O)[C@H](CO)NC(=O)[C@H](Cc1c[nH]cn1)NC(=O)[C@H](CCCNC(=N)N)NC(=O)[C@H](CC(C)C)NC(=O)[C@H](Cc1ccccc1)NC(=O)[C@H](Cc1c[nH]cn1)NC(=O)[C@H](C)NC(=O)[C@H](CC(C)C)NC(=O)[C@H](CCCNC(=N)N)NC(=O)[C@H](CCC(N)=O)NC(=O)[C@@H](NC(=O)[C@H](C)NC(=O)[C@@H]1CSSC[C@H](NC(=O)[C@@H](N)CCCCNC(=O)COCCOCCNC(=O)CC[C@H](NC(=O)CCCCCCCCCCCCCCCCCCC(=O)O)C(=O)O)C(=O)N[C@@H](CC(N)=O)C(=O)N[C@@H]([C@@H](C)O)C(=O)N[C@@H](C)C(=O)N[C@@H]([C@@H](C)O)C(=O)N1)[C@@H](C)O)C(=O)N1CCC[C@H]1C(=O)N[C@@H](CO)C(=O)N[C@@H](CO)C(=O)N[C@H](C(=O)N[C@@H](CC(N)=O)C(=O)N[C@H](C(=O)NCC(=O)N[C@@H](CCCNC(=N)N)C(=O)N[C@@H](CC(N)=O)C(=O)N[C@H](C(=O)N[C@@H](Cc1ccc(O)cc1)C(N)=O)[C@@H](C)O)C(C)C)[C@@H](C)O
notes: also called compound 84
B3: N^ε1-[2-[2-[2-[[(4S)-4-carboxy-4-(19-carboxynonadecanoylamino)butanoyl]amino]ethoxy]ethoxy]acetyl]-[Gly14,Arg17,Pro21,Pro27,Pro31]-h-amylin (peptide)
peptide: K([AEEA-γGlu-C20 diacid])CNTATCATQRLAGFLRHSSPNFGAIPSSTPVGSNTY-NH2
modifications: disulfide 2-7; N-terminus assumed
SMILES: CC[C@H](C)[C@H](NC(=O)[C@H](C)NC(=O)CNC(=O)[C@H](Cc1ccccc1)NC(=O)[C@H](CC(N)=O)NC(=O)[C@@H]1CCCN1C(=O)[C@H](CO)NC(=O)[C@H](CO)NC(=O)[C@H](Cc1c[nH]cn1)NC(=O)[C@H](CCCNC(=N)N)NC(=O)[C@H](CC(C)C)NC(=O)[C@H](Cc1ccccc1)NC(=O)CNC(=O)[C@H](C)NC(=O)[C@H](CC(C)C)NC(=O)[C@H](CCCNC(=N)N)NC(=O)[C@H](CCC(N)=O)NC(=O)[C@@H](NC(=O)[C@H](C)NC(=O)[C@@H]1CSSC[C@H](NC(=O)[C@@H](N)CCCCNC(=O)COCCOCCNC(=O)CC[C@H](NC(=O)CCCCCCCCCCCCCCCCCCC(=O)O)C(=O)O)C(=O)N[C@@H](CC(N)=O)C(=O)N[C@@H]([C@@H](C)O)C(=O)N[C@@H](C)C(=O)N[C@@H]([C@@H](C)O)C(=O)N1)[C@@H](C)O)C(=O)N1CCC[C@H]1C(=O)N[C@@H](CO)C(=O)N[C@@H](CO)C(=O)N[C@H](C(=O)N1CCC[C@H]1C(=O)N[C@H](C(=O)NCC(=O)N[C@@H](CO)C(=O)N[C@@H](CC(N)=O)C(=O)N[C@H](C(=O)N[C@@H](Cc1ccc(O)cc1)C(N)=O)[C@@H](C)O)C(C)C)[C@@H](C)O
notes: also called compound 71
B4: N^ε1-[2-[2-[2-[[(4S)-4-carboxy-4-(19-carboxynonadecanoylamino)butanoyl]amino]ethoxy]ethoxy]acetyl]-[Arg17,Pro21,Pro27,Pro29,Pro34]-h-amylin (peptide)
peptide: K([AEEA-γGlu-C20 diacid])CNTATCATQRLANFLRHSSPNFGAIPSPTNVGPNTY-NH2
modifications: disulfide 2-7; N-terminus assumed
SMILES: CC[C@H](C)[C@H](NC(=O)[C@H](C)NC(=O)CNC(=O)[C@H](Cc1ccccc1)NC(=O)[C@H](CC(N)=O)NC(=O)[C@@H]1CCCN1C(=O)[C@H](CO)NC(=O)[C@H](CO)NC(=O)[C@H](Cc1c[nH]cn1)NC(=O)[C@H](CCCNC(=N)N)NC(=O)[C@H](CC(C)C)NC(=O)[C@H](Cc1ccccc1)NC(=O)[C@H](CC(N)=O)NC(=O)[C@H](C)NC(=O)[C@H](CC(C)C)NC(=O)[C@H](CCCNC(=N)N)NC(=O)[C@H](CCC(N)=O)NC(=O)[C@@H](NC(=O)[C@H](C)NC(=O)[C@@H]1CSSC[C@H](NC(=O)[C@@H](N)CCCCNC(=O)COCCOCCNC(=O)CC[C@H](NC(=O)CCCCCCCCCCCCCCCCCCC(=O)O)C(=O)O)C(=O)N[C@@H](CC(N)=O)C(=O)N[C@@H]([C@@H](C)O)C(=O)N[C@@H](C)C(=O)N[C@@H]([C@@H](C)O)C(=O)N1)[C@@H](C)O)C(=O)N1CCC[C@H]1C(=O)N[C@@H](CO)C(=O)N1CCC[C@H]1C(=O)N[C@H](C(=O)N[C@@H](CC(N)=O)C(=O)N[C@H](C(=O)NCC(=O)N1CCC[C@H]1C(=O)N[C@@H](CC(N)=O)C(=O)N[C@H](C(=O)N[C@@H](Cc1ccc(O)cc1)C(N)=O)[C@@H](C)O)C(C)C)[C@@H](C)O
notes: also called compound 56
B5: N^ε1-[2-[2-[2-[[(4S)-4-carboxy-4-(19-carboxynonadecanoylamino)butanoyl]amino]ethoxy]ethoxy]acetyl]-[Arg17,Pro21,Pro27,Pro34,His35]-h-amylin (peptide)
peptide: K([AEEA-γGlu-C20 diacid])CNTATCATQRLANFLRHSSPNFGAIPSSTNVGPHTY-NH2
modifications: disulfide 2-7; N-terminus assumed
SMILES: CC[C@H](C)[C@H](NC(=O)[C@H](C)NC(=O)CNC(=O)[C@H](Cc1ccccc1)NC(=O)[C@H](CC(N)=O)NC(=O)[C@@H]1CCCN1C(=O)[C@H](CO)NC(=O)[C@H](CO)NC(=O)[C@H](Cc1c[nH]cn1)NC(=O)[C@H](CCCNC(=N)N)NC(=O)[C@H](CC(C)C)NC(=O)[C@H](Cc1ccccc1)NC(=O)[C@H](CC(N)=O)NC(=O)[C@H](C)NC(=O)[C@H](CC(C)C)NC(=O)[C@H](CCCNC(=N)N)NC(=O)[C@H](CCC(N)=O)NC(=O)[C@@H](NC(=O)[C@H](C)NC(=O)[C@@H]1CSSC[C@H](NC(=O)[C@@H](N)CCCCNC(=O)COCCOCCNC(=O)CC[C@H](NC(=O)CCCCCCCCCCCCCCCCCCC(=O)O)C(=O)O)C(=O)N[C@@H](CC(N)=O)C(=O)N[C@@H]([C@@H](C)O)C(=O)N[C@@H](C)C(=O)N[C@@H]([C@@H](C)O)C(=O)N1)[C@@H](C)O)C(=O)N1CCC[C@H]1C(=O)N[C@@H](CO)C(=O)N[C@@H](CO)C(=O)N[C@H](C(=O)N[C@@H](CC(N)=O)C(=O)N[C@H](C(=O)NCC(=O)N1CCC[C@H]1C(=O)N[C@@H](Cc1c[nH]cn1)C(=O)N[C@H](C(=O)N[C@@H](Cc1ccc(O)cc1)C(N)=O)[C@@H](C)O)C(C)C)[C@@H](C)O
notes: also called compound 58
B6: N^ε1-[2-[2-[2-[[(4S)-4-carboxy-4-(19-carboxynonadecanoylamino)butanoyl]amino]ethoxy]ethoxy]acetyl]-[Arg17,Pro21,Pro27,Pro31,His35]-h-amylin (peptide)
peptide: K([AEEA-γGlu-C20 diacid])CNTATCATQRLANFLRHSSPNFGAIPSSTPVGSHTY-NH2
modifications: disulfide 2-7; N-terminus assumed
SMILES: CC[C@H](C)[C@H](NC(=O)[C@H](C)NC(=O)CNC(=O)[C@H](Cc1ccccc1)NC(=O)[C@H](CC(N)=O)NC(=O)[C@@H]1CCCN1C(=O)[C@H](CO)NC(=O)[C@H](CO)NC(=O)[C@H](Cc1c[nH]cn1)NC(=O)[C@H](CCCNC(=N)N)NC(=O)[C@H](CC(C)C)NC(=O)[C@H](Cc1ccccc1)NC(=O)[C@H](CC(N)=O)NC(=O)[C@H](C)NC(=O)[C@H](CC(C)C)NC(=O)[C@H](CCCNC(=N)N)NC(=O)[C@H](CCC(N)=O)NC(=O)[C@@H](NC(=O)[C@H](C)NC(=O)[C@@H]1CSSC[C@H](NC(=O)[C@@H](N)CCCCNC(=O)COCCOCCNC(=O)CC[C@H](NC(=O)CCCCCCCCCCCCCCCCCCC(=O)O)C(=O)O)C(=O)N[C@@H](CC(N)=O)C(=O)N[C@@H]([C@@H](C)O)C(=O)N[C@@H](C)C(=O)N[C@@H]([C@@H](C)O)C(=O)N1)[C@@H](C)O)C(=O)N1CCC[C@H]1C(=O)N[C@@H](CO)C(=O)N[C@@H](CO)C(=O)N[C@H](C(=O)N1CCC[C@H]1C(=O)N[C@H](C(=O)NCC(=O)N[C@@H](CO)C(=O)N[C@@H](Cc1c[nH]cn1)C(=O)N[C@H](C(=O)N[C@@H](Cc1ccc(O)cc1)C(N)=O)[C@@H](C)O)C(C)C)[C@@H](C)O
notes: also called compound 57

What was measured:
[1] = target: T1, human amylin receptor (amylin 3(a) …); assay: cell-based or functional assay
[2] = target: T2, human calcitonin receptor; assay: cell-based or functional assay

Binder | hAmylin-R funct. EC50 [1] [nM] | hCTR funct. EC50 [2] [nM] | Ratio hCT/hAmylin funct. [1]
B1 | 0.068 | 0.731 | –
B2 | 0.169 | 5.49 | 32.5
B3 | 0.056 | 0.527 | –
B4 | 0.102 | 0.506 | –
B5 | 0.047 | 1.03 | –
B6 | 0.089 | 3.12 | –
